# Data published in patent US20260125454A1 (SHANGHAI JUNSHI BIOSCIENCES, published 2026).
# Several values for one entry are separate records, joined by “and”; a condition that tells them apart may be missing. Equal values may be shown once. Read-outs that look alike come from different tables or passages of the source. Bridges are numbered along the chain shown (N, C = ends). Where no end group is shown, it is not given here. The star is where a group is joined. Biotin = O=C1N[C@H]2[C@H](CS[C@H]2CCCCC(=O)*)N1
# T1: Biotin-huCGRPaSA (human, not fully specified; biotin (position not given))
# T1 construct: exact construct ('aSA') not explained; also called Biotin CGRPaSA; full-length (1-37) CGRP
# T1 peptide: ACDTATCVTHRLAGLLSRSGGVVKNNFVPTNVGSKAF
# T2: Biotin-1-19 polypeptide (human, disulfide 2-7; not fully specified (N-terminus); printed as Biotin-Linker(G5)-ACDTATCVTHRLAGLLSRS; ends not checked; also: biotin, position not given here)
# T2 construct: also called fragment CGRP (1-19); truncated (1-19) CGRP
# T2 peptide: ACDTATCVTHRLAGLLSRS
# T3: hCGRP(1-19) (human, N-terminal biotin; CYS residues at positions 7 and 12 theoretically form 1 intrachain disulfide bond)
# T3 construct: also called polypeptide 1-19
# T3 peptide: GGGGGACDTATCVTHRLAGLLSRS
# T4: hCGRP(1-37) (human, N-terminal biotin; C-terminal phenylalanine amide (F-NH2); CYS residues at positions 7 and 12 theoretically form 1 intrachain disulfide bond)
# T4 construct: also called polypeptide 1-37; full-length hCGRP (1-37) polypeptide
# T4 peptide: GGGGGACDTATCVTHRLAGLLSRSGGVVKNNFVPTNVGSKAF
# T5: hCGRP(8-19) (human)
# T5 construct: also called polypeptide 8-19
# T5 peptide: Biotin-GGGGGVTHRLAGLLSRS
# T6: hCGRP(8-26) (human, N-terminal biotin)
# T6 construct: also called polypeptide 8-26
# T6 peptide: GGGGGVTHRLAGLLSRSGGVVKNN
# Key:
# [1] = biological target: CGRP antigen; experiment: cell-based or functional assay
# [2] = biological target: CGRP antigen; experiment: cell-based or functional assay; remark: listed apart in the source
# [3] = biological target: T1, Biotin-huCGRPaSA; experiment: ELISA, transfection supernatant, biotin-CGRP on streptavidin
# Procedure: Streptavidin was diluted to 0.5 μg/mL by using PBS (Hyclone) and added into a plate at 100 μL/well. The plate was incubated in a thermostat incubator at 37° C. for 90 min and then washed. 2% BSA was added to the plate at 200 μL/well, and the plate was incubated in the thermostat incubator at 37° C. for 90 min and washed. Biotin-huCGRPaSA was diluted to 2.0 μg/mL with 2% BSA and added into the plate at 100 μL/well, and the plate was incubated in the thermostat incubator at 37° C. for 60 min. The reference antibody (47-RM) was diluted to 2500 ng/ml with a diluent (2% BSA) and serially 4-fold diluted to 0.15 ng/mL, and the chimeric antibodies were diluted with a cell supernatant stock solution. All the chimeric antibody solutions and the reference antibody solution were added into plates at 80 μL/well, and the plates were incubated in a thermostat incubator at 37° C. for 60 min and washed. An HRP-conjugated mouse anti-human antibody IgG4 (manufacturer: Southern Biotech, Cat. No. 9200-05; Fc specificity) was diluted 5000-fold with 2% BSA and added into the plates at 100 μL/well, and the plates were incubated in the thermostat incubator at 37° C. for 60 min and washed. 0.1 mg/mL chromogenic reagent TMB was carefully added at 100 μL/well to avoid bubbles, and the system was incubated at 37° C. for 10 min away from light for chromogenic reaction. Finally, a 2 M hydrochloric acid solution was added at 100 μL/well to stop the reaction while avoiding bubbles, and the plates were read on a microplate reader within 10 min (the detection wavelength was 450 nm; the reference wavelength was 620 nm).
# [4] = biological target: T1, Biotin-huCGRPaSA; experiment: ELISA, purified antibody; relative to reference 47-RM-20190815
# Procedure: Streptavidin was diluted to […] by using PBS (Hyclone) and added into a plate at 100 μL/well. The plate was incubated in a thermostat incubator at 37° C. for 90 min and then washed. 2% BSA was added to the plate at 200 μL/well, and the plate was incubated in the thermostat incubator at 37° C. for 90 min and washed. Biotin-huCGRPaSA was diluted to 2.0 μg/mL with 2% BSA and added into the plate at 100 μL/well, and the plate was incubated in the thermostat incubator at 37° C. for 60 min. The chimeric antibodies in Table 3 and reference antibody (47-RM-20190815) were diluted to 1000 ng/ml with a diluent (2% BSA) and serially 10-fold diluted to 1 ng/mL. All the chimeric antibody solutions and the reference antibody solution were added into plates at 100 μL/well, and the plates were incubated in a thermostat incubator at 37° C. for 60 min and washed. An HRP-conjugated mouse anti-human antibody IgG4 (manufacturer: Southern Biotech, Cat. No. 9200-05; Fc specificity) was diluted 5000-fold with 2% BSA and added into the plates at 100 μL/well, and the plates were incubated in the thermostat incubator at 37° C. for 60 min and washed. 0.1 mg/mL chromogenic reagent TMB was carefully added at 100 μL/well to avoid bubbles, and the system was incubated at 37° C. for 5 min away from light for chromogenic reaction. Finally, a 2 M hydrochloric acid solution was added at 100 μL/well to stop the reaction while avoiding bubbles, and the plates were read on a microplate reader within 10 min (the detection wavelength was 450 nm; the reference wavelength was 620 nm). EC₅₀ was fit by using a four-parameter logistic regression (4PL) model.
# [5] = biological target: T2, Biotin-1-19 polypeptide; experiment: ELISA, transfection supernatant, biotin-CGRP(1-19) on streptavidin
# Procedure: Streptavidin was diluted to 0.5 μg/mL by using PBS (Hyclone) and added into a plate at 100 μL/well. The plate was incubated in a thermostat incubator at 37° C. for 90 min and then washed. 2% BSA was added to the plate at 200 μL/well, and the plate was incubated in the thermostat incubator at 37° C. for 90 min and washed. Biotin-1-19 polypeptide was diluted to 2.0 μg/mL with 2% BSA and added into the plate at 100 μL/well, and the plate was incubated in the thermostat incubator at 37° C. for 60 min. The reference antibody (Lily) was diluted to 2500 ng/ml with a diluent (2% BSA) and then serially 4-fold diluted to 0.15 ng/ml. For chimeric antibodies, the stock solution was diluted. All the chimeric antibody solutions and the reference antibody solution were added into plates at 80 μL/well, and the plates were incubated in a thermostat incubator at 37° C. for 60 min and washed. An HRP-conjugated mouse anti-human antibody IgG4 (manufacturer: Southern Biotech, Cat. No. 9200-05; Fc specificity) was diluted 5000-fold with 2% BSA and added into the plates at 100 µL/well, and the plates were incubated in the thermostat incubator at 37° C. for 60 min and washed. 0.1 mg/mL chromogenic reagent TMB was carefully added at 100 μL/well to avoid bubbles, and the system was incubated at 37° C. for 10 min away from light for chromogenic reaction. Finally, a 2 M hydrochloric acid solution was added at 100 μL/well to stop the reaction while avoiding bubbles, and the plates were read on a microplate reader within 10 min (the detection wavelength was 450 nm; the reference wavelength was 620 nm).
# [6] = biological target: T3, hCGRP(1-19); experiment: BLI (Octet), biotin-peptide on SA probe, 45 nM Fab
# Procedure: (§1) The kinetic parameters of C245 Fab (Fab monomer fragments derived from antibody C245) binding to six synthetic human CGRP alpha polypeptide fragments (polypeptide 1-13, polypeptide 1-19, polypeptide 1-37, polypeptide 8-19, polypeptide 8-26, and polypeptide 13-24) were determined on an Octet RBD 96e system. Human CGRP synthetic polypeptide fragments were immobilized on the surfaces of SA bioprobes (Sartorius, Cat. No. 18-5019) at the following concentrations: 46.5 nM for hCGRP (1-13), 8.5 nM for CGRP (1-19), 15.5 nM for hCGRP (1-37), 8.5 nM for hCGRP (8-19), 15.5 nM for hCGRP (8-26), and 46.5 nM for hCGRP (13-24). The immobilized synthetic human CGRP polypeptide fragments were bound to 45 nM of C245 Fab and the binding dissociation curves were fitted using analytical software.
# (§2) The kinetic parameters of hu224 Fab (Fab monomer fragments derived from humanized antibody hu224) binding to four synthetic human CGRP alpha polypeptide fragments (polypeptide 1-13, polypeptide 1-19, polypeptide 1-37, and polypeptide 8-19) were determined on an Octet RBD 96e system. Human CGRP synthetic polypeptide fragments were immobilized on the surfaces of SA bioprobes (Sartorius, Cat. No. 18-5019) at the following concentrations: 8.5 nM for CGRP (1-19), 15.5 nM for hCGRP (1-37), 10 nM for hCGRP (8-19), and 15.5 nM for hCGRP (8-26). The immobilized synthetic human CGRP polypeptide fragments were bound to 45 nM of hu224 Fab and the binding dissociation curves were fitted using analytical software.
# [7] = biological target: T4, hCGRP(1-37); experiment: BLI (Octet), biotin-peptide on SA probe, 45 nM Fab
# Procedure: as §1, §2
# [8] = biological target: T5, hCGRP(8-19); experiment: BLI (Octet), biotin-peptide on SA probe, 45 nM Fab
# Procedure: as §1, §2
# [9] = biological target: T6, hCGRP(8-26); experiment: BLI (Octet), biotin-peptide on SA probe, 45 nM Fab
# Procedure: as §1, §2
# [10] = biological target: CGRP antigen; experiment: cell-based or functional assay; remark: listed apart in the source
binder,measurement,setting,value
"C245 (antibody, V domains shown, 3C1-HC + 3C1-LC; chimeric, human constant regions; also called chimeric antibody C245) VH: EVQLQQSGPELVKPGASMKISCKASGYSFTGYTMNWVKQSHGNNLEWIGLINPYIGNTHYNQKFKDKATFTVDRSSSTAYMALLSLTSEDSAVYYCARELDSGFDYWGQGTTLTVSS VL: DVLMTQTPLSLPVSLGDQASLSCRSSQNIVHSNGDTYLEWYLQKPGQSPKLLIYKVSNRFSGVPDRFSGSGSGTDFTLKISRVEAEDLGVYYCYQGSHVPWTFGGGTKLEIK",Relative binding activity (%) vs Ref(Teva),[1],116%
same,IC50 of reference C245,[2],0.018 µg/mL and 0.0236 µg/mL and 0.0259 µg/mL and 0.0281 µg/mL
same,OD value,[3],3.31 OD
same,Relative activity (%),[4],240%
same,OD value,[5],2.51 OD
"hu224 Fab (Fab, V domains shown, also called Fab monomer fragments derived from humanized antibody hu224) VH: QVQLVQSGAEVKKPGASVKVSCKASGYSFTGYTMNWVRQAPGQRLEWMGLINPYIGNTHYNQKFKDRVTFTVDRSSSTAYMELSSLRSEDTAVYYCARELDSGFDYWGQGTLVTVSS VL: DVVMTQSPDSLAVSLGERATINCRSSQNIVHSNGDTYLEWYQQKPGQPPKLLIYKVSNRFSGVPDRFSGSGSGTDFTLTISSLQAEDVAVYYCYQGSHVPWTFGQGTKLEIK",Kd,[6],0.0823 nM
same,koff,[6],2.62e-05 s⁻¹
same,kon,[6],318000 M⁻¹ s⁻¹
same,Kd,[7],0.288 nM
same,koff,[7],7.97e-05 s⁻¹
same,kon,[7],277000 M⁻¹ s⁻¹
same,Kd,[8],0.445 nM
same,koff,[8],0.000151 s⁻¹
same,kon,[8],341000 M⁻¹ s⁻¹
same,Kd,[9],1.18 nM
same,koff,[9],0.000374 s⁻¹
same,kon,[9],316000 M⁻¹ s⁻¹
"C71 (antibody, V domains shown, 1F5-HC + 1A2-LC2; chimeric, human constant regions) VH: EVQLQQSGPELVKPGASVKISCKTSGYTFIDFNMHWVKQSHGKSLEWIGYIYPYNGDVVYNQNFTNKATLTVDSSSSTAYMELRRVTSEDSAIYYCAREGLGGYWGQGTTLTVSS VL: DIVLTQSPASLAVSLGQRATISCKASQNIDYDGYAYLNWYQQKPGQPPKVLIYSVFNLESGIPARFSGSGSGTDFTLNIHPVEEEDAATYYCQQSNEFPYTFGGGTKLEVK",Relative binding activity (%) vs Ref(Teva),[10],106%
same,OD value,[3],3.06 OD
same,Relative activity (%),[4],47.3%
"C232 (antibody, V domains shown, 3C1-HC + 1A2-LC2; chimeric, human constant regions) VH: EVQLQQSGPELVKPGASMKISCKASGYSFTGYTMNWVKQSHGNNLEWIGLINPYIGNTHYNQKFKDKATFTVDRSSSTAYMALLSLTSEDSAVYYCARELDSGFDYWGQGTTLTVSS VL: DIVLTQSPASLAVSLGQRATISCKASQNIDYDGYAYLNWYQQKPGQPPKVLIYSVFNLESGIPARFSGSGSGTDFTLNIHPVEEEDAATYYCQQSNEFPYTFGGGTKLEVK",OD value,[3],3.28 OD
same,Relative activity (%),[4],3.4%
same,OD value,[5],3.15 OD
"C246 (antibody, V domains shown, 3C1-HC + 3E5-LC; chimeric, human constant regions) VH: EVQLQQSGPELVKPGASMKISCKASGYSFTGYTMNWVKQSHGNNLEWIGLINPYIGNTHYNQKFKDKATFTVDRSSSTAYMALLSLTSEDSAVYYCARELDSGFDYWGQGTTLTVSS VL: DIVLTQSPASLAVSLGQRATISCKASQNIDYDGYTYLNWYQQKPGQPPKVLIYSIFNLESGIPARFSGSGSGTDFTLNIHPVEEEDAATYYCQQSNEVPYTFGGGTKLEIK",OD value,[5],0.91 OD
"C235 (antibody, V domains shown, 3C1-HC + 1F5-LC1; chimeric, human constant regions) VH: EVQLQQSGPELVKPGASMKISCKASGYSFTGYTMNWVKQSHGNNLEWIGLINPYIGNTHYNQKFKDKATFTVDRSSSTAYMALLSLTSEDSAVYYCARELDSGFDYWGQGTTLTVSS VL: DIVLTQSPASLAVSLGQRATISCKASQNIDFDGYAYMNWYQHKPGQPPRVLIYSVFNLESGIPARFSGSGSGTDFTLNIHPVEEEDAATYYCQQSHEVPYTFGGGTNLEIK",OD value,[5],2.84 OD
"C253 (antibody, V domains shown, 3C1-HC + 3H10-LC2; chimeric, human constant regions) VH: EVQLQQSGPELVKPGASMKISCKASGYSFTGYTMNWVKQSHGNNLEWIGLINPYIGNTHYNQKFKDKATFTVDRSSSTAYMALLSLTSEDSAVYYCARELDSGFDYWGQGTTLTVSS VL: DIVLTQSPDSLAVSLGQRATISCKASQNIDYGGYSYMNWYQQKPGQPPKVLIYSVFNLESGIPARFSGSGSGTDFTLTIHPVEEEDAATYYCQQSNEAPYTFGGGTKLEIR",OD value,[3],2.46 OD
same,OD value,[5],2.94 OD
